From PMC11076521

Target: MYC-tagged FTL wild type, P02792
Assay: co-IP; HeLa-FTH1 KO cells; anti-MYC IP of MYC-FTH1/FTL, immunoblot; 50 mM Tris-HCl pH 7.5, 150 mM NaCl, 0.5% Nonidet P40, 1 mM DTT; quantified relative to FTH1-WT, normalized to immunoprecipitated FTH1/FTL and NCOA4 input
Conditions: remark: other sources report otherwise

Chain of MYC-tagged FTL wild type, P02792 (P02792 whole entry): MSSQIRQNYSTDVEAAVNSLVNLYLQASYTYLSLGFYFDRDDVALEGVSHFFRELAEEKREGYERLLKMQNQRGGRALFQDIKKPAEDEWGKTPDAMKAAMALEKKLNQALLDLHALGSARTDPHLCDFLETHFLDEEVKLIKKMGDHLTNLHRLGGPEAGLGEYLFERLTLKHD

B1: C-terminally HA-FLAG-tagged NCOA4, Q13772 1-614 (natural protein)
chain: MNTFQDQSGSSSNREPLLRCSDARRDLELAIGGVLRAEQQIKDNLREVKAQIHSCISRHLECLRSREVWLYEQVDLIYQLKEETLQQQAQQLYSLLGQFNCLTHQLECTQNKDLANQVSVCLERLGSLTLKPEDSTVLLFEADTITLRQTITTFGSLKTIQIPEHLMAHASSANIGPFLEKRGCISMPEQKSASGIVAVPFSEWLLGSKPASGYQAPYIPSTDPQDWLTQKQTLENSQTSSRACNFFNNVGGNLKGLENWLLKSEKSSYQKCNSHSTTSSFSIEMEKVGDQELPDQDEMDLSDWLVTPQESHKLRKPENGSRETSEKFKLLFQSYNVNDWLVKTDSCTNCQGNQPKGVEIENLGNLKCLNDHLEAKKPLSTPSMVTEDWLVQNHQDPCKVEEVCRANEPCTSFAECVCDENCEKEALYKWLLKKEGKDKNGMPVEPKPEPEKHKDSLNMWLCPRKEVIEQTKAPKAMTPSRIADSFQVIKNSPLSEWLIRPPYKEGSPKEVPGTEDRAGKQKFKSPMNTSWCSFNTADWVLPGKKMGNLSQLSSGEDKWLLRKKAQEVLLNSPLQEEHNFPPDHYGLPAVCDLFACMQLKVDKEKWLYRTPLQM
  relative interaction by immunoprecipitation (% of FTH1-WT): 14%
